Results reported in publication PMC10706272, “Improving the Thermostability of Thermomyces lanuginosus Lipase by Restricting the Flexibility of N-Terminus and C-Terminus Simultaneously via the 25-Loop Substitutions” (International Journal of Molecular Sciences, 2023).

test system: CCCCCCCCCCCCCCCC(=O)Oc1ccc([N+](=O)[O-])cc1; assay: initial-rate hydrolysis of pNPP, p-nitrophenol release, Michaelis-Menten fit; type: biochemical, Thermomyces lanuginosus; conditions: 37 °C, pH 9.0, Tris-HCl 100 mM, apparent Km, pNPP 0.25-10 mM
From the text: initial-rate hydrolysis of pNPP, p-nitrophenol release, Michaelis-Menten fit on TLL (Thermomyces lanuginosus lipase)

“TLL (Thermomyces lanuginosus lipase) (Thermomyces lanuginosus; D49N)” and “TLL (Thermomyces lanuginosus lipase) (Thermomyces lanuginosus; A52P)” are within error of each other in Km: 220 ± 20 µM for the first, 240 ± 20 µM for the second.

“TLL (Thermomyces lanuginosus lipase) (Thermomyces lanuginosus; D49R)” and “TLL (Thermomyces lanuginosus lipase) (Thermomyces lanuginosus; P51S)” are within 1.5-fold of each other in Km: 360 ± 10 µM for the first, 290 ± 30 µM for the second.

With “TLL (Thermomyces lanuginosus lipase) (Thermomyces lanuginosus; K46S)” the Km was 310 ± 20 µM.

Compared with “TLL (Thermomyces lanuginosus lipase) (Thermomyces lanuginosus; D49N)”, “TLL (Thermomyces lanuginosus lipase) (Thermomyces lanuginosus; A52P)” is higher in Vmax: 396 µmol/min/mg for the first, 503 µmol/min/mg for the second.

First: TLL (Thermomyces lanuginosus lipase) (Thermomyces lanuginosus; D49R)
Second: TLL (Thermomyces lanuginosus lipase) (Thermomyces lanuginosus; P51S)
The Vmax of the first is higher: 828 µmol/min/mg for the first, 668 µmol/min/mg for the second.

Substance “TLL (Thermomyces lanuginosus lipase) (Thermomyces lanuginosus; K46S)” has a Vmax of 681 µmol/min/mg.

“TLL (Thermomyces lanuginosus lipase) (Thermomyces lanuginosus; D49N)” and “TLL (Thermomyces lanuginosus lipase) (Thermomyces lanuginosus; A52P)” are within 1.5-fold of each other in kcat: 777 ± 5 s⁻¹ for the first, 1036 ± 4 s⁻¹ for the second.

“TLL (Thermomyces lanuginosus lipase) (Thermomyces lanuginosus; D49R)” and “TLL (Thermomyces lanuginosus lipase) (Thermomyces lanuginosus; P51S)” are within 1.5-fold of each other in kcat: 1900 ± 21 s⁻¹ for the first, 1354 ± 9 s⁻¹ for the second.

“TLL (Thermomyces lanuginosus lipase) (Thermomyces lanuginosus; K46S)” was tested, and the kcat was 1380 ± 22 s⁻¹.

“TLL (Thermomyces lanuginosus lipase) (Thermomyces lanuginosus; D49N)” and “TLL (Thermomyces lanuginosus lipase) (Thermomyces lanuginosus; A52P)” are within 1.5-fold of each other in kcat/Km: 3.503e+06 ± 31000 M⁻¹ s⁻¹ for the first, 4.383e+06 ± 42000 M⁻¹ s⁻¹ for the second.

“TLL (Thermomyces lanuginosus lipase) (Thermomyces lanuginosus; D49R)” and “TLL (Thermomyces lanuginosus lipase) (Thermomyces lanuginosus; P51S)” are within 1.5-fold of each other in kcat/Km: 5.24e+06 ± 118000 M⁻¹ s⁻¹ for the first, 4.747e+06 ± 28000 M⁻¹ s⁻¹ for the second.

Work on “TLL (Thermomyces lanuginosus lipase) (Thermomyces lanuginosus; K46S)” yielded a kcat/Km of 4.48e+06 ± 157000 M⁻¹ s⁻¹.
